Laboratory results published in patent US7658917 (PRAECIS PHARMACEUTICALS, dated 2010).
Numbered stars: 1 amine (or outer) side, 2 acyl side, 3 side chain; on linkers, the order of the positions; unused ones are H or OH. Square brackets hold non-standard residues; d marks the D form. Primed or numbered codes have the meaning given here. * marks the point of attachment. Cholyl = C[C@H](CCC(=O)*)[C@H]1CC[C@H]2[C@@H]3[C@H](O)C[C@@H]4C[C@H](O)CC[C@]4(C)[C@H]3C[C@H](O)[C@]12C; Adp = aminoethyldibenzofuranylpropanoic acid, O=C(CCc1cccc2c1oc1c(CCN[*:1])cccc12)[*:2]; Tyr(3-I) = N[C@@H](Cc1ccc(O)c(I)c1)C(=O)O; Aic″ = 3-(O-aminoethyl-iso)-cholyl; NANA = N-acetyl neuraminyl; βAla = NCCC(=O)O

B1: NANA-KLVFF-oh (peptide)
peptide: {NANA}-KLVFF-OH
B2: CA-LVF-oh (peptide)
peptide: Cholyl-Leu-Val-Phe-OH
SMILES: CC(C)C[C@H](NC(=O)CC[C@@H](C)[C@H]1CC[C@H]2[C@@H]3[C@H](O)C[C@@H]4C[C@H](O)CC[C@]4(C)[C@H]3C[C@H](O)[C@]12C)C(=O)N[C@H](C(=O)N[C@@H](Cc1ccccc1)C(=O)O)C(C)C
B3: CA-FKFVL-oh (peptide)
peptide: Cholyl-FKFVL-OH
SMILES: CC(C)C[C@H](NC(=O)[C@@H](NC(=O)[C@H](Cc1ccccc1)NC(=O)[C@H](CCCCN)NC(=O)[C@H](Cc1ccccc1)NC(=O)CC[C@@H](C)[C@H]1CC[C@H]2[C@@H]3[C@H](O)C[C@@H]4C[C@H](O)CC[C@]4(C)[C@H]3C[C@H](O)[C@]12C)C(C)C)C(=O)O
B4: h-LVFFA-oh (peptide)
peptide: H-LVFFA-OH
B5: CA-KLVFF(βA)-oh (peptide)
peptide: Cholyl-KLVFF[βAla]-OH
SMILES: CC(C)C[C@H](NC(=O)[C@H](CCCCN)NC(=O)CC[C@@H](C)[C@H]1CC[C@H]2[C@@H]3[C@H](O)C[C@@H]4C[C@H](O)CC[C@]4(C)[C@H]3C[C@H](O)[C@]12C)C(=O)N[C@H](C(=O)N[C@@H](Cc1ccccc1)C(=O)N[C@@H](Cc1ccccc1)C(=O)NCCC(=O)O)C(C)C
B6: CA-LAFFA-oh (peptide)
peptide: Cholyl-LAFFA-OH
SMILES: CC(C)C[C@H](NC(=O)CC[C@@H](C)[C@H]1CC[C@H]2[C@@H]3[C@H](O)C[C@@H]4C[C@H](O)CC[C@]4(C)[C@H]3C[C@H](O)[C@]12C)C(=O)N[C@@H](C)C(=O)N[C@@H](Cc1ccccc1)C(=O)N[C@@H](Cc1ccccc1)C(=O)N[C@@H](C)C(=O)O
B7: CA-AVFFA-oh (peptide)
peptide: Cholyl-AVFFA-OH
SMILES: CC(C)[C@H](NC(=O)[C@H](C)NC(=O)CC[C@@H](C)[C@H]1CC[C@H]2[C@@H]3[C@H](O)C[C@@H]4C[C@H](O)CC[C@]4(C)[C@H]3C[C@H](O)[C@]12C)C(=O)N[C@@H](Cc1ccccc1)C(=O)N[C@@H](Cc1ccccc1)C(=O)N[C@@H](C)C(=O)O
B8: h-KLVFF-nh2 (peptide)
peptide: H-KLVFF-NH2
B9: CA-HQKLVFF-nh2 (peptide)
peptide: Cholyl-HQKLVFF-NH2
B10: CA-LVFFA-o-methyl (peptide)
peptide: Cholyl-LVFFA-OMe
B11: CA-LVFFK-oh (peptide)
peptide: Cholyl-LVFFK-OH
SMILES: CC(C)C[C@H](NC(=O)CC[C@@H](C)[C@H]1CC[C@H]2[C@@H]3[C@H](O)C[C@@H]4C[C@H](O)CC[C@]4(C)[C@H]3C[C@H](O)[C@]12C)C(=O)N[C@H](C(=O)N[C@@H](Cc1ccccc1)C(=O)N[C@@H](Cc1ccccc1)C(=O)N[C@@H](CCCCN)C(=O)O)C(C)C
B12: h-LVFFA-(Aic)-oh (peptide)
peptide: H-LVFFA[Aic″]-OH
B13: CA-LVAFA-oh (peptide)
peptide: Cholyl-LVAFA-OH
SMILES: CC(C)C[C@H](NC(=O)CC[C@@H](C)[C@H]1CC[C@H]2[C@@H]3[C@H](O)C[C@@H]4C[C@H](O)CC[C@]4(C)[C@H]3C[C@H](O)[C@]12C)C(=O)N[C@H](C(=O)N[C@@H](C)C(=O)N[C@@H](Cc1ccccc1)C(=O)N[C@@H](C)C(=O)O)C(C)C
B14: CA-VFFA-oh (peptide)
peptide: Cholyl-VFFA-OH
SMILES: CC(C)[C@H](NC(=O)CC[C@@H](C)[C@H]1CC[C@H]2[C@@H]3[C@H](O)C[C@@H]4C[C@H](O)CC[C@]4(C)[C@H]3C[C@H](O)[C@]12C)C(=O)N[C@@H](Cc1ccccc1)C(=O)N[C@@H](Cc1ccccc1)C(=O)N[C@@H](C)C(=O)O
B15: CA-LVFFA-nh2 (peptide)
peptide: Cholyl-LVFFA-NH2
B16: CA-LVFF-oh (peptide)
peptide: Cholyl-LVFF-OH
B17: CA-LV(IY)FA-oh (peptide)
peptide: Cholyl-LV[Tyr(3-I)]FA-OH
B18: CA-VFF-oh (peptide)
peptide: Cholyl-Val-Phe-Phe-OH
SMILES: CC(C)[C@H](NC(=O)CC[C@@H](C)[C@H]1CC[C@H]2[C@@H]3[C@H](O)C[C@@H]4C[C@H](O)CC[C@]4(C)[C@H]3C[C@H](O)[C@]12C)C(=O)N[C@@H](Cc1ccccc1)C(=O)N[C@@H](Cc1ccccc1)C(=O)O
B19: CA-KTVFF-oh (peptide)
peptide: Cholyl-KTVFF-OH
SMILES: CC(C)[C@H](NC(=O)[C@@H](NC(=O)[C@H](CCCCN)NC(=O)CC[C@@H](C)[C@H]1CC[C@H]2[C@@H]3[C@H](O)C[C@@H]4C[C@H](O)CC[C@]4(C)[C@H]3C[C@H](O)[C@]12C)[C@@H](C)O)C(=O)N[C@@H](Cc1ccccc1)C(=O)N[C@@H](Cc1ccccc1)C(=O)O
B20: CA-FFA-oh (peptide)
peptide: Cholyl-Phe-Phe-Ala-OH
SMILES: C[C@H](NC(=O)[C@H](Cc1ccccc1)NC(=O)[C@H](Cc1ccccc1)NC(=O)CC[C@@H](C)[C@H]1CC[C@H]2[C@@H]3[C@H](O)C[C@@H]4C[C@H](O)CC[C@]4(C)[C@H]3C[C@H](O)[C@]12C)C(=O)O
B21: h-LVFFA-nh2 (peptide)
peptide: H-LVFFA-NH2
B22: h-DDIIL-(Adp)-VFF-oh (peptide)
peptide: H-DDIIL[Adp]VFF-OH
SMILES: CC[C@H](C)[C@H](NC(=O)[C@H](CC(=O)O)NC(=O)[C@@H](N)CC(=O)O)C(=O)N[C@H](C(=O)N[C@@H](CC(C)C)C(=O)NCCc1cccc2c1oc1c(CCC(=O)N[C@H](C(=O)N[C@@H](Cc3ccccc3)C(=O)N[C@@H](Cc3ccccc3)C(=O)O)C(C)C)cccc12)[C@@H](C)CC
B23: CA-LVFFAE-oh (peptide)
peptide: Cholyl-LVFFAE-OH
SMILES: CC(C)C[C@H](NC(=O)CC[C@@H](C)[C@H]1CC[C@H]2[C@@H]3[C@H](O)C[C@@H]4C[C@H](O)CC[C@]4(C)[C@H]3C[C@H](O)[C@]12C)C(=O)N[C@H](C(=O)N[C@@H](Cc1ccccc1)C(=O)N[C@@H](Cc1ccccc1)C(=O)N[C@@H](C)C(=O)N[C@@H](CCC(=O)O)C(=O)O)C(C)C
B24: NANA-HQKLVFF-nh2 (peptide)
peptide: {NANA}-HQKLVFF-NH2

The binders below were run against natural β-amyloid peptide β-AP1-40 (human) (assay: cell-based or functional assay).
Chain of natural β-amyloid peptide β-AP1-40 (human) (peptide, as listed by the source): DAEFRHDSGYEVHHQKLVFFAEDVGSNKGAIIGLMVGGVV
For B1, the “% Iext'n; seeded extension assay; 25 mole %” value (from here on “% Iext'n”) was 8%, the “% Inucl'n; nucleation assay; 100 mole %” value was 16% and the “ΔLag; nucleation assay; 100 mole %” value was 0.9 ratio.
With B2 the “% Iext'n” value was 0%, the “% Inucl'n; nucleation assay; 100 mole %” value was 1% and the “ΔLag; nucleation assay; 100 mole %” value was 1.3 ratio.
B3 was tested, and the “% Iext'n” value was 37%, the “% Inucl'n; nucleation assay; 100 mole %” value was 45% and the “ΔLag; nucleation assay; 100 mole %” value was 0.8 ratio.
With B4 the “% Iext'n” value was 11%, the “% Inucl'n; nucleation assay; 100 mole %” value was 15% and the “ΔLag; nucleation assay; 100 mole %” value was 1 ratio.
In the case of B5, the “% Iext'n” value is reported as 80%, the “% Inucl'n; nucleation assay; 100 mole %” value is reported as 76% and the “ΔLag; nucleation assay; 100 mole %” value is reported as 2.5 ratio.
In the case of B6, the “% Iext'n” value is reported as 66%, the “% Inucl'n; nucleation assay; 100 mole %” value is reported as 47% and the “ΔLag; nucleation assay; 100 mole %” value is reported as 1.5 ratio.
B7 was tested, and the “% Iext'n” value was 44%, the “% Inucl'n; nucleation assay; 100 mole %” value was 68% and the “ΔLag; nucleation assay; 100 mole %” value was 1.4 ratio.
B8 was tested, and the “% Iext'n” value was 39%, the “% Inucl'n; nucleation assay; 100 mole %” value was -9% and the “ΔLag; nucleation assay; 100 mole %” value was 1.3 ratio.
In the case of B9, the “% Inucl'n; nucleation assay; 33 mole %” value is reported as 5% and the “ΔLag; nucleation assay; 33 mole %” value is reported as 1.1 ratio.
With B10 the “% Iext'n” value was 0%.
With B11 the “% Iext'n” value was 85%, the “% Inucl'n; nucleation assay; 33 mole %” value was 100% and the “ΔLag; nucleation assay; 33 mole %” value was > 5 ratio.
B12 was tested, and the “% Iext'n” value was 3%, the “% Inucl'n; nucleation assay; 100 mole %” value was 46% and the “ΔLag; nucleation assay; 100 mole %” value was 3.5 ratio.
B13 was tested, and the “% Iext'n” value was 0%, the “% Inucl'n; nucleation assay; 100 mole %” value was 25% and the “ΔLag; nucleation assay; 100 mole %” value was 2.7 ratio.
For B14, the “% Iext'n” value was 10%, the “% Inucl'n; nucleation assay; 100 mole %” value was 76% and the “ΔLag; nucleation assay; 100 mole %” value was 2 ratio.
In the case of B15, the “% Iext'n” value is reported as 91%, the “% Inucl'n; nucleation assay; 100 mole %” value is reported as -200% and the “ΔLag; nucleation assay; 100 mole %” value is reported as 1 ratio.
In the case of B16, the “% Iext'n” value is reported as 51%, the “% Inucl'n; nucleation assay; 33 mole %” value is reported as 72% and the “ΔLag; nucleation assay; 33 mole %” value is reported as 1.8 ratio.
In the case of B17, the “% Iext'n” value is reported as 71%, the “% Inucl'n; nucleation assay; 100 mole %” value is reported as 100% and the “ΔLag; nucleation assay; 100 mole %” value is reported as > 5 ratio.
B18 was tested, and the “% Iext'n” value was 0%, the “% Inucl'n; nucleation assay; 100 mole %” value was 55% and the “ΔLag; nucleation assay; 100 mole %” value was 1.8 ratio.
With B19 the “% Iext'n” value was 21%, the “% Inucl'n; nucleation assay; 100 mole %” value was 18% and the “ΔLag; nucleation assay; 100 mole %” value was 1.2 ratio.
For B20, the “% Iext'n” value was 6%, the “% Inucl'n; nucleation assay; 100 mole %” value was 51% and the “ΔLag; nucleation assay; 100 mole %” value was 1 ratio.
For B21, the “% Iext'n” value was 70%, the “% Inucl'n; nucleation assay; 100 mole %” value was 11% and the “ΔLag; nucleation assay; 100 mole %” value was 1.3 ratio.
With B22 the “% Iext'n” value was 0%, the “% Inucl'n; nucleation assay; 100 mole %” value was 14% and the “ΔLag; nucleation assay; 100 mole %” value was 0.4 ratio.
In the case of B23, the “% Iext'n” value is reported as 16%, the “% Inucl'n; nucleation assay; 100 mole %” value is reported as 55% and the “ΔLag; nucleation assay; 100 mole %” value is reported as 1.4 ratio.
In the case of B24, the “% Inucl'n; nucleation assay; 100 mole %” value is reported as -15% and the “ΔLag; nucleation assay; 100 mole %” value is reported as 1.5 ratio.
